Reference: patent publication US20230372448A1, “THERAPEUTIC USE OF LONG-ACTING CONJUGATE OF TRIPLE AGONIST ACTING ON ALL OF GLUCAGON, GLP-1 AND GIP RECEPTORS AGAINST MULTIPLE SCLEROSIS” (HANMI PHARM. CO. ,LTD., priority 2020, published 2023)
Positions of bridges follow the written chain, without caps; N, C: chain ends. Non-standard residues stand in square brackets, D forms with d. No end group written: not given here. *: point of attachment. Acetyl(2-(4-imidazolyl)) = O=C(Cc1c[nH]cn1)*; Aib = CC(C)(N)C(=O)O

T1: human GIP receptor (human, UniProt P48546 22-466)
T1 sequence (looked up): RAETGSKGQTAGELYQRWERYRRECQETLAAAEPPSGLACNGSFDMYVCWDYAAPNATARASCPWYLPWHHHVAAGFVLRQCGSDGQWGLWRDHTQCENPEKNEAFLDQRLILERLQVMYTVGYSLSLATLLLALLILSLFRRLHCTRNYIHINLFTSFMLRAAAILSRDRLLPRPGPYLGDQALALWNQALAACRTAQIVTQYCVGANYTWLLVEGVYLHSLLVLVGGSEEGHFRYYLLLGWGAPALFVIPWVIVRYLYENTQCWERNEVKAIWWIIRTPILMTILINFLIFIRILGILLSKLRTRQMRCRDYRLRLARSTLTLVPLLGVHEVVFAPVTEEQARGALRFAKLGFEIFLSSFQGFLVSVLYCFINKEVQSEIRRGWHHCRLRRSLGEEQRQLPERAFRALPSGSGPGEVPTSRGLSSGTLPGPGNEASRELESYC


Key:
Experiment in all cases: cell-based or functional assay
human GLP-1 receptor = human GLP-1 receptor (human, UniProt P43220 24-463)
human GCG receptor = human GCG receptor (human, UniProt P47871 26-477)
human GIP receptor = target: T1, human GIP receptor

Sequence of human GCG receptor (P47871 26-477): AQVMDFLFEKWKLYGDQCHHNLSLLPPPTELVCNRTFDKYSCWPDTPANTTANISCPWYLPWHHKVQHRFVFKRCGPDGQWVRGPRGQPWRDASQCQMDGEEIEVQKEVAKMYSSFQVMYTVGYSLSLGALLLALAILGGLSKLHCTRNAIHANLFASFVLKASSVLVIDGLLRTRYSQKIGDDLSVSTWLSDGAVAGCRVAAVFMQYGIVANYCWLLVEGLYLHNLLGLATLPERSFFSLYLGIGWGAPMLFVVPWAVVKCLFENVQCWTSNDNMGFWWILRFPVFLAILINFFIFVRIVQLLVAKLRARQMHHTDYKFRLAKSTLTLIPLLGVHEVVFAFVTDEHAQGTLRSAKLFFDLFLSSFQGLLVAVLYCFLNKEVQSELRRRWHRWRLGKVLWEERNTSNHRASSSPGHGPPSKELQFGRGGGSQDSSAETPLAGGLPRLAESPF

Row | Binder | In vitro activity (%) compared with native peptide: vs GLP-1 (human GLP-1 receptor) [%] | In vitro activity (%) compared with native peptide: vs Glucagon (human GCG receptor) [%] | In vitro activity (%) compared with native peptide: vs GIP (human GIP receptor) [%]
1 | Y[Aib]QGTFTSDCSKYLDERAAKDFVQWLLDHHPSSGQPPPS (bridge 16-20; not fully specified) [triple agonist of SEQ ID NO: 72] | 11.5 | 1 | 1.6
2 | H[Aib]QGTFTSDYSKCLDEKRAKEFVQWLLDHHPSSGQPPPS (bridge 16-20; not fully specified) [triple agonist of SEQ ID NO: 65] | 95.4 | 25.2 | 11.6
3 | {Acetyl(2-(4-imidazolyl))}-[Aib]QGTFTSDCSKYLDERAAQDFVQWLLDGGPSSGAPPPS (not fully specified) [triple agonist of SEQ ID NO: 63] | 15.3 | < 0.1 | < 0.1
4 | Y[Aib]QGTFTSDYSKCLDEKRAKDFVQWLLDHHPSSGQPPPS (bridge 16-20; not fully specified) [triple agonist of SEQ ID NO: 70] | 15.1 | 71.3 | 64.4
5 | {Acetyl(2-(4-imidazolyl))}-[Aib]QGTFTSDYSIAMDEIACKDFVNWLLNTK (bridge 15-19; not fully specified) [triple agonist of SEQ ID NO: 61] | 59.8 | < 0.1 | 2.8
6 | {Acetyl(2-(4-imidazolyl))}-[Aib]QGTFTSDYSKCLDEKRAKEFVQWLLDHHPSSGQPPPS (bridge 15-19; not fully specified) [triple agonist of SEQ ID NO: 74] | 12.9 | 0.9 | 1
7 | Y[Aib]QGTFTSDYSKYLDERACKDFVQWLLDHHPSSGQPPPS (bridge 16-20; not fully specified) [triple agonist of SEQ ID NO: 71] | 90.1 | 12.7 | 94.7
8 | Y[Aib]QGTFTSDYSKYLDECRAKDFVQWLLDHHPSSGQPPPS (bridge 16-20; not fully specified) [triple agonist of SEQ ID NO: 66] | 15.8 | 172 | 17.2
9 | {Acetyl(2-(4-imidazolyl))}-[Aib]QGTFTSDYSICMDEKHQKDFVNWLLNTK (bridge 15-19; not fully specified) [triple agonist of SEQ ID NO: 59] | 40.3 | < 0.1 | 4
10 | H[Aib]QGTFTSDYSKYLDEKRQKEFVQWLLDTKC (bridge 16-20; not fully specified) [triple agonist of SEQ ID NO: 78] | 51 | 14 | 0.12
11 | Y[Aib]QGTFTSDYSKYLDEKRAKDFVQWLLDHHPSSGQPPPSC (bridge 16-20; not fully specified) [triple agonist of SEQ ID NO: 76] | 10.3 | 47.6 | 11.7
12 | Y[Aib]QGTFTSDYSKYLDECAAKDFVQWLLDHHPSSGQPPPS (bridge 16-20) [triple agonist of SEQ ID NO: 67] | 28.5 | 46.2 | 39.8
13 | H[Aib]QGTFTSDYSKYLDEKRQKEFVQWLLNTKC (bridge 16-20; not fully specified) [triple agonist of SEQ ID NO: 58] | 39.1 | 2.6 | 0.2
14 | Y[Aib]QGTFTSDYSKCLDEKAAKEFVQWLLDHHPSSGQPPPS (bridge 16-20; not fully specified) [triple agonist of SEQ ID NO: 68] | 27.9 | 8.8 | 107
15 | {Acetyl(2-(4-imidazolyl))}-[Aib]QGTFTSDKSKYLDERAAQDFVQWLLDGGPSSGAPPPS (not fully specified) [triple agonist of SEQ ID NO: 62] | 5.2 | < 0.1 | < 0.1
16 | Y[Aib]QGTFTSDYSKYLDEKAAKDFVQWLLDHHPSSGQPPPSC (bridge 16-20; not fully specified) [triple agonist of SEQ ID NO: 77] | 38.7 | 12.2 | 35.5
17 | Y[Aib]QGTFTSDYSKYLDEKAAKEFVQWLLDHHPSSGQPPPSC (bridge 16-20; not fully specified) [triple agonist of SEQ ID NO: 75] | 35.1 | 8.5 | 18
18 | Y[Aib]QGTFTSDYSKYLDECAAKEFVQWLLDHHPSSGQPPPS (bridge 16-20; not fully specified) [triple agonist of SEQ ID NO: 64] | 64.6 | 60.1 | 92.9
19 | H[Aib]QGTFTSDVSKYLDGQAAQEFVAWLLKGC (not fully specified) [triple agonist of SEQ ID NO: 8] | 14.2 | 0.1 | < 0.1
20 | {Acetyl(2-(4-imidazolyl))}-[Aib]QGTFTSDYSKYLDECRAKEFVQWLLDHHPSSGQPPPS (bridge 15-19; not fully specified) [triple agonist of SEQ ID NO: 73] | 22.6 | 5.4 | 3
21 | H[Aib]QGTFTSDVSKYLDGQAAKEFVAWLLKGC (not fully specified) [triple agonist of SEQ ID NO: 7] | 13.7 | < 0.1 | < 0.1
22 | {Acetyl(2-(4-imidazolyl))}-[Aib]QGTFTSDYSIAMDEKHCKDFVNWLLNTK (bridge 15-19; not fully specified) [triple agonist of SEQ ID NO: 60] | 106 | < 0.1 | 8.2
23 | Y[Aib]QGTFTSDYSKCLDERAAKEFVQWLLDHHPSSGQPPPS (bridge 16-20; not fully specified) [triple agonist of SEQ ID NO: 69] | 24.3 | 9.6 | 62.8
24 | H[Aib]EGTFTSDYSIAMDEIHQKDFVNWLLAQKC (bridge 16-20; not fully specified) [triple agonist of SEQ ID NO: 79] | 41.5 | 4.9 | 1.4
